In article PMC8685454:

How the values were obtained:
[1] = molecular target: commercial Spike protein, active Recombinant 2019-nCoV Spike Protein, RBD, His Tag (SARS-CoV-2) (UniProt P0DTC2); experiment: ELISA
[2] = molecular target: plant produced deglycosylated Receptor Binding Domain of Spike protein of SARS-CoV-2 (SARS-CoV-2) (UniProt P0DTC2); experiment: ELISA

plant produced Endo H in vivo deglycosylated soluble (truncated) human ACE2 (receptor)
Kd [1]: 4.68 nM | Kd [2]: 1.29 nM
